Experimental data from paper PMC10482750, “Assessment of the roles of Spt5-nucleic acid contacts in promoter proximal pausing of RNA polymerase II” (The Journal of Biological Chemistry, 2023).
Positions count from the first letter of the chain named. Numbers in names are those of the source.

B1: DRB sensitivity-inducing factor (DSIF), wild type (Spt5 and Spt4) (complex)
chain 1: not shown
chain 2: MAFDAIPKDLRGLRACLVCSLVKSFDQFETDGCENCEEFLRMKNNKDNVYDHTSNNFDGIIALTTPTDSWVAKWQRLSRFTRGIYAISVSGTLPQSTLRDMKNRGIVYKSRDRSQR
notes: Spt5, Drosophila; Spt4, Drosophila; No tag cleavage is described; A ~100-kDa Spt5 degradation product lacking the acidic N-terminal region is in each preparation; also called WT DSIF; source: E. coli Rosetta (DE3) pLysS, purified (Talon, anti-FLAG)
B2: DSIF NGN-Asp mutant (complex)
chain 1: not shown
chain 2: B1 chain 2
notes: Spt5, Drosophila, two basic residues of the NGN domain changed to aspartic acid; d numbers are Drosophila Spt5; Spt4, Drosophila; as in m2; source: E. coli Rosetta (DE3) pLysS, purified (Talon, anti-FLAG)
B3: DSIF Spt4 (R79E, R82E, K109E) mutant (complex)
chain 1: not shown
chain 2: B1 chain 2 with R79E, R82E, K109E
notes: Spt5, Drosophila, wild type; as in m2; Spt4, Drosophila, three basic residues changed to glutamic acid; also called Spt4 mutant; source: E. coli, purified as WT DSIF (Talon, anti-FLAG)

The binders below were run against T1, negative elongation factor (NELF): NELF-A, NELF-B, NELF-D, NELF-E (Drosophila, UniProt Q86NP2 1-1251; Q9Y113 1-594; Q24134 1-578; P92204 1-280) (assay: native gel or EMSA; stalled Pol II elongation complexes plus purified WT or mutant DSIF and NELF together (supershift); room temperature; Torula yeast RNA added; 4% native polyacrylamide gel run at 4 °C). Conditions: both partners purified.
T1 construct: NELF-A, Drosophila; NELF-B, Drosophila; NELF-D, Drosophila; NELF-E, Drosophila; No tag cleavage is described; source: Sf9, baculovirus, purified (Ni-NTA, anti-FLAG); copies: + + +
T1 sequence (Q86NP2 whole entry, chain 1 of 4): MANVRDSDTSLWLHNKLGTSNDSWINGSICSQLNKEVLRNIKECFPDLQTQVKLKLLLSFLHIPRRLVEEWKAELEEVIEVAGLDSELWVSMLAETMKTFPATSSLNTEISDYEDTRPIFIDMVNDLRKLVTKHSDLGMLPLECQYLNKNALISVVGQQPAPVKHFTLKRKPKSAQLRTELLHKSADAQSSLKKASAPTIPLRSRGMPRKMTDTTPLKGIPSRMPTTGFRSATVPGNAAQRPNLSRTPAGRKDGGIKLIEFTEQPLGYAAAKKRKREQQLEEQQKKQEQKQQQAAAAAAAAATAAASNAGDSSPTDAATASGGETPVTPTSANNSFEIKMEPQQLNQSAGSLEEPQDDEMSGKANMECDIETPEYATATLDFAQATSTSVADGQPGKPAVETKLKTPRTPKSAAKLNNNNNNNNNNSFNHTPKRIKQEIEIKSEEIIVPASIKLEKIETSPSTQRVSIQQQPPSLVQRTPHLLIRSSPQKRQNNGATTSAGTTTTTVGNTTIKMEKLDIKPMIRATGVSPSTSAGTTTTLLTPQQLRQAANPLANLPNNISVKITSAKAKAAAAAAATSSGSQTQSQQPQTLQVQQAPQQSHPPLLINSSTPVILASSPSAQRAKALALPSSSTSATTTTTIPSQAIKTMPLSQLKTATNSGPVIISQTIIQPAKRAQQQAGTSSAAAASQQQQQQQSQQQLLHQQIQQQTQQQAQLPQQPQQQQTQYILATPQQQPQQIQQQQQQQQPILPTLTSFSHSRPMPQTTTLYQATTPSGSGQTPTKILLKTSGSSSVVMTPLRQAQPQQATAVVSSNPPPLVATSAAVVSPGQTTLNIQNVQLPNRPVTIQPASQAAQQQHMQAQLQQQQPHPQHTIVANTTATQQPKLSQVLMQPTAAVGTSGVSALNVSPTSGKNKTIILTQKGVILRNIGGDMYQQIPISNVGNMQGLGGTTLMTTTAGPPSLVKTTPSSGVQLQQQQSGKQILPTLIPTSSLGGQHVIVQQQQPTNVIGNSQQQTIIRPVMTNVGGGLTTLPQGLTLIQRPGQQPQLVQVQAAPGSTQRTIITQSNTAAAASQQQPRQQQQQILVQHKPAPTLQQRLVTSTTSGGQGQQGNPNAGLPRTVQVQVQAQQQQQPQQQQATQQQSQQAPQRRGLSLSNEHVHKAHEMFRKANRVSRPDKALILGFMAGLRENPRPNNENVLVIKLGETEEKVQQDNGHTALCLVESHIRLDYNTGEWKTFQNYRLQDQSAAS
T1 sequence (Q9Y113 whole entry, chain 2 of 4): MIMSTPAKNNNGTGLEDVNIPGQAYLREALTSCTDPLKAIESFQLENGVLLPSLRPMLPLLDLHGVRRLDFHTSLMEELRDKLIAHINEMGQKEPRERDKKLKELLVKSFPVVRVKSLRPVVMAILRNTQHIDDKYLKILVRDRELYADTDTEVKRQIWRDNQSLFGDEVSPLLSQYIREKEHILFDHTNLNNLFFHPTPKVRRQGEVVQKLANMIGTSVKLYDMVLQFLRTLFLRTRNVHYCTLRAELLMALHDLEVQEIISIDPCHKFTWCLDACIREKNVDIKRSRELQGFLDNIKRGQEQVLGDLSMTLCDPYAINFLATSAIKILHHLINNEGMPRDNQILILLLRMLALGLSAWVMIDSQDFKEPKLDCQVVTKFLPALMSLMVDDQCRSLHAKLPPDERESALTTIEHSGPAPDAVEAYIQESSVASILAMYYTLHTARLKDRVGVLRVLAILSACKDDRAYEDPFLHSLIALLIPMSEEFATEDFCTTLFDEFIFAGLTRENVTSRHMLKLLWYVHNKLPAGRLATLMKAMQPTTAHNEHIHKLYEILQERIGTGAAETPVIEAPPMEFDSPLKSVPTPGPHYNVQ
T1 sequence (Q24134 whole entry, chain 3 of 4): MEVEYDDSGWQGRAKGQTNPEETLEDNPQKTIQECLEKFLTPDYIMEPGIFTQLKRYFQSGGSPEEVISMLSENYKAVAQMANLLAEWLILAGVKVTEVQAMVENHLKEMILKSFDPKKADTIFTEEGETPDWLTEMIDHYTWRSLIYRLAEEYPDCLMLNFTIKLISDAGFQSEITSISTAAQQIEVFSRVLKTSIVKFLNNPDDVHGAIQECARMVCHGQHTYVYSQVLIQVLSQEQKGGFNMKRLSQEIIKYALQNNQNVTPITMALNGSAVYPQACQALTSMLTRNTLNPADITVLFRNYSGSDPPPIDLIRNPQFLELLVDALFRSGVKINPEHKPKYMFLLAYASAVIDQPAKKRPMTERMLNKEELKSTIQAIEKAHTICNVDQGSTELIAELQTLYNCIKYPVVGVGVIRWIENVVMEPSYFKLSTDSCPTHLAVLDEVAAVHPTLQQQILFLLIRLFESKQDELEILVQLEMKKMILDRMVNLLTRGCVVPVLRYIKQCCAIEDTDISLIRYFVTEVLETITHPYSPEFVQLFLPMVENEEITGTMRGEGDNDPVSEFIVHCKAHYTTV
T1 sequence (P92204 whole entry, chain 4 of 4): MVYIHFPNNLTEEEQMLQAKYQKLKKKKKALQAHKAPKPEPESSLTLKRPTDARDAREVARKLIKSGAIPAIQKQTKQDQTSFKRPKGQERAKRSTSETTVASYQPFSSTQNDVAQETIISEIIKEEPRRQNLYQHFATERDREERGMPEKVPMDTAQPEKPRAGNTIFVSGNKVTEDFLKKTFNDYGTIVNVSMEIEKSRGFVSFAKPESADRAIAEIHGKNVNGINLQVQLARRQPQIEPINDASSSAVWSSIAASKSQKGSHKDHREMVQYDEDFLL

| binding result | Binder |
| --- | --- |
| binds | B1 |
| binds | B2 |
| binds | B3 |
